In paper PMC12476982:

Columns and labels:
Experiment in all cases: fluorescence polarization
Conditions in all cases: FP: 10 nM Cy5 nucleosome in Buffer B (composition not in material) except 60 mM NaCl, quadratic fit, EMSA: 15 nM nucleosome, 15 min, room …
cBAF (ARID1A) (human) = tested on: cBAF (ARID1A) (human)
BRG1 (human) = tested on: BRG1 (human)
ncBAF (human) = tested on: ncBAF (human)
PBAF (human) = tested on: PBAF (human)

Cy5 mononucleosome, 197-bp 601 DNA gave a Kd (cBAF (ARID1A) (human)) of 0.045 µM, a Kd (BRG1 (human)) of 0.115 µM and a Kd (ncBAF (human)) of 0.017 µM. For the same substance, the Kd (PBAF (human)) was 0.082 µM.
